Laboratory results reported in IntAct's records for PubMed 34400613.

Legend:
[1] = molecular target: G3BP1 (UniProt Q13283)
[2] = molecular target: G3BP1 (UniProt Q13283); remark: listed apart in the source

Sequence of UniProt Q13283 (Q13283 whole entry, looked up): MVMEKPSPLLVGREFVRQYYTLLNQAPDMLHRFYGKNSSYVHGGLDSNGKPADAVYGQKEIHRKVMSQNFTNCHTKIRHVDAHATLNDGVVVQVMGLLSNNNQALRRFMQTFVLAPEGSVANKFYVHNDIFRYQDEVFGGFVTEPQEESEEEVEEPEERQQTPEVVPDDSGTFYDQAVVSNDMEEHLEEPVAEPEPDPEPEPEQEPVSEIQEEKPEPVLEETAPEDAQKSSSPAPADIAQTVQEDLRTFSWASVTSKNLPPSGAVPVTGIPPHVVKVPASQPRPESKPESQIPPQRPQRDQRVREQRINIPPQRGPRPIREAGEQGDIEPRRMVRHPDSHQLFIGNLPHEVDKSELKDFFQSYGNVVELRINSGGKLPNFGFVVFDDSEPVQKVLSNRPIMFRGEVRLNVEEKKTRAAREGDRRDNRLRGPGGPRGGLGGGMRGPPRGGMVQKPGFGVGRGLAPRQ

Row | Substance | effect of a mutation on the interaction [1] | effect of a mutation on the interaction [2]
1 | Nucleoprotein (SARS-CoV-2) (from UniProt P0DTC9) G18E | decreasing interaction strength | 
2 | Nucleoprotein (SARS-CoV-2) (from UniProt P0DTC9) I15A;T16A;F17A;G18A |  | disrupting interaction strength
3 | Nucleoprotein (SARS-CoV-2) (from UniProt P0DTC9) I15A | decreasing interaction strength | 
4 | Nucleoprotein (SARS-CoV-2) (from UniProt P0DTC9) T16A | decreasing interaction strength | 
5 | Nucleoprotein (SARS-CoV-2) (from UniProt P0DTC9) G18A |  | decreasing interaction strength
